Experiment [1] concerns the target T1, fibrin (Homo sapiens, UniProt P02671+P02675+P02679).
T1 construct: purchased Calbiochem (EMD Biosciences, Inc., La Jolla, Calif.)
T1 sequence (P02671 36-629 limits assumed): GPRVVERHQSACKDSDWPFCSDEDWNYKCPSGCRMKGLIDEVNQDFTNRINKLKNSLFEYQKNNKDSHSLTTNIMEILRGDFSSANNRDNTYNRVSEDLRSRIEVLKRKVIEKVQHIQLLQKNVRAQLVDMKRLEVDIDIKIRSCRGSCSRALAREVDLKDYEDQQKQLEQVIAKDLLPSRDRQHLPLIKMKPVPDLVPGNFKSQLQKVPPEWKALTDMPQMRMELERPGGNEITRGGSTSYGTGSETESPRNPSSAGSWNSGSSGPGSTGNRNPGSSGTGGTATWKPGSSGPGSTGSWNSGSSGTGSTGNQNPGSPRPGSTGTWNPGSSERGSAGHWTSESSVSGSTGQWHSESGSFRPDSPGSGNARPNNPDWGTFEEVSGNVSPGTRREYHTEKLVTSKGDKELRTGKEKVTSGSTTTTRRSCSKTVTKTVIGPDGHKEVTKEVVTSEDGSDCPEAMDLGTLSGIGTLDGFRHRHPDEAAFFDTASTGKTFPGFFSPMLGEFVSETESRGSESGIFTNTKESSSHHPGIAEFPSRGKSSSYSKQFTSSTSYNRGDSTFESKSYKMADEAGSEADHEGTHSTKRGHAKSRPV
T1 sequence (P02675 45-491 limits assumed): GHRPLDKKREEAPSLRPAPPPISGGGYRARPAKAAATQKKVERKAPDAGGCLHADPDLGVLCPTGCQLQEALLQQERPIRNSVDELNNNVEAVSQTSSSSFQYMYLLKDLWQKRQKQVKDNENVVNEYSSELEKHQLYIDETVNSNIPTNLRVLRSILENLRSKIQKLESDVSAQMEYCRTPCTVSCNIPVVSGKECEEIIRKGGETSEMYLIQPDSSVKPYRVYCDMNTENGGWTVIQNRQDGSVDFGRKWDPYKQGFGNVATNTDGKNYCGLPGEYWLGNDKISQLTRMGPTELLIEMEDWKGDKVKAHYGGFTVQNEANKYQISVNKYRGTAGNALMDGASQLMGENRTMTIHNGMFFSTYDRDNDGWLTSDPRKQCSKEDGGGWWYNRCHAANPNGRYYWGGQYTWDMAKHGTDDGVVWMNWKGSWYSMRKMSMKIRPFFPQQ
T1 sequence (P02679 27-437 isoform P02679-2 limits assumed): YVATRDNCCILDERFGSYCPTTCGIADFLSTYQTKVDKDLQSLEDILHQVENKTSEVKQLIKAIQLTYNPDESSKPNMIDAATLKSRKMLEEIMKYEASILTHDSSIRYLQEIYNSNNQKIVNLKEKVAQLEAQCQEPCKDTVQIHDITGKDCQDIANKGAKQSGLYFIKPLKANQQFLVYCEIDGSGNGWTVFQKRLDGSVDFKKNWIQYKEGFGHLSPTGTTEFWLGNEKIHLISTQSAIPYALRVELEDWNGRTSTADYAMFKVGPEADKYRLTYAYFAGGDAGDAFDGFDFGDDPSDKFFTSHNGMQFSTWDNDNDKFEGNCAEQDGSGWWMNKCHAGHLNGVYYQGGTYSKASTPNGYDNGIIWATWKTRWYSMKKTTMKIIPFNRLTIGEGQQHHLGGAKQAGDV
The experiment can be described thus: Two-stage fibrin pad ELISA, Scatchard and van't Hoff analysis. The settings on record: for Avidity: Kassoc × no. ligand molecules/liposome; for Kassoc: detergent-treated preparation. Format: binding. The method, then: Added 100 μl 0.2% BSA/PBS to each well and incubated at 37° C. for 1 hour. All subsequent incubations were also at 37° C. Aspirated the wells and washed the plate 3× with PBS-T. Added Activase dilutions (10, 5, 2.5, 1.25, and 0.625 μg/ml PBS-T) to replicate wells ([…]). Incubated for 2 hours. Removed the contents of each well and pooled all samples within each dilution. Stored pooled samples at 4° C. For tPA-ELIP dilutions (in PBS), the third wash before adding the samples was with PBS. Stored the pooled tPA-ELIP samples in polypropylene tubes.
Added monoclonal anti-tPA capture antibody (Ab) (5 μg/ml coating buffer; […]) to rows B, C, E and G of a fresh microplate. Incubated in a humidified chamber at 4° C. overnight. All subsequent incubations were in humidified chambers at 37° C. at volumes of 50 μl/well, followed by aspiration of wells and 3× washes with PBS-T. Blocked all rows with conjugate buffer for 1 hour. Added tPA standards (50, 25, 12.5, 6.25 and 3.13 ng/ml) and pooled sample dilutions (in PBS-T) in duplicate to sample (B, C, E, G) and background (A, D, F, H) wells. Incubated for 2 hours. Added secondary detection Ab (10 μg sheep anti-tPA/ml 0.1% BSA in PBS-T) to all wells and incubated 1 hour, followed by a conjugate incubation (3,000× diluted with conjugate buffer; 1 hour). Added 50 μl of substrate buffer+500 of substrate (1 tablet/5 ml substrate buffer) to each well. Incubated at 37° for 15 minutes. Immediately quenched with 5 μl of 1M sodium hydroxide/well. Read the plate at 405 nm. Determined net absorbance (A405) by subtracting background OD from sample OD (e.g., B4-A4 or E7-F7).
Calculated the undiluted tPA concentrations of each pooled sample from the standard curve. These represented the free fractions ([F]) of the sample dilutions after equilibrium incubation with fibrin. Obtained the bound concentrations ([B]) by subtracting the free values from the total tPA concentration of the starting dilutions. Prepared Scatchard plots by plotting [B] (x-axis) vs. B/F (y-axis). The slope=−Kassoc and the y-intercept=Kassoc[n], where [n] was the concentration of exposed tPA binding sites on the fibrin pads.
Dilutions of untreated, sham-treated (control) and PPACK-treated (tPA(P)) tPA, as well as tPA(P) conjugated to ELIP (tPA(P)-ELIP), were incubated on replicate fibrin pads, prepared in microplate wells according to a modification of the method of Edgell et al. (1996). Human thrombin was added to a solution of 0.5 mg/ml of human fibrinogen in 0.02M phosphate-buffered saline, pH 7.4 (PBS), to a final concentration of 0.125 IU thrombin/ml; 100 μl of this solution was immediately added to each well and incubated at 37° C. for 45 minutes, followed by overnight drying of the plate at 45° C. After incubation with 100 μl/well of 0.2% BSA in PBS for 1 hour, samples (100 μl/well) were incubated for 2 hours at 37° C. For thermodynamic analyses, this incubation was performed at three temperatures (5, 24 and 37° C.). In order to determine the concentration of free tPA remaining in solution after incubation of tPA with fibrin, from which the concentration of bound tPA could be calculated for Scatchard analysis, the contents of duplicate wells were recovered, pooled and subsequently assayed for immunoreactive tPA in a standard quantitative sandwich ELISA.
Briefly, Nunc MaxiSorp microtiter plates were coated with 5 μg/ml of a monoclonal anti-tPA capture antibody (Ab) in 0.05M sodium bicarbonate, pH 9.6, overnight at 4° C. All incubation volumes were 50 μl/well. One-half of wells were left uncoated for determination of nonspecific binding. After aspirating well contents, all wells were blocked with conjugate buffer (1% BSA in 0.05M Tris buffer, pH 8.0, with 0.02% sodium azide) for 1 hour. From this point, all incubations were at 37° C. Each incubation was followed by aspiration of well contents and washes (3×) with PBS-T (PBS with 0.05% Tween 20). […]
(ELISA stands for enzyme-linked immunosorbent assay.)

Experiment [2] can be described thus: tPA enzyme activity after PPACK inactivation, paranitroanilide-substrate method. As to conditions: S.E., n=3. Type of experiment: biochemical. The method, then: Reconstituted tPA was incubated with a fivefold molar excess of PPACK in 0.2 M L-arginine in 0.05M phosphate buffer, pH 7.2, with 0.01% Tween 20 for 1 hour at room temperature, followed by dialysis against reaction buffer to remove unreacted PPACK. A control preparation was carried through the procedure without PPACK and all procedures involving PPACK were protected from light. Enzyme activity in PPACK-treated and control tPA preparations was measured with a […] paranitroanilide-substrate method (Ranby and Wallen, 1981).

The target of experiment [3] is T1, fibrin. The experiment can be described thus: Two-stage fibrin pad ELISA, Scatchard and van't Hoff analysis. As to conditions: undiluted fresh-frozen rabbit serum, 37° C.; read-out: binding affinity (KD) in serum.

What is called Kd is the constant that tells how readily two partners part at equilibrium.

Like-named read-outs stand apart in the source and are kept apart here.

As to Fibrinogen [reference compound], the cross-reactivity with fibrin at fibrin [1] (competition with tPA samples, Example 12) was 5%.

Regarding “Sham (Control): tPA control preparation carried through the inactivation procedure without PPACK [reference compound]”, the equilibrium dissociation constant (Kd) with fibrin [1] (S.E., n=3, read-out: High-Affinity KD @ 37° C.) was found to be 5.92 nM. Further, in experiment [2], the “Percent Starting Activity” value was determined as 99.8%.

As for “tPA(P)-ELIP: PPACK-inactivated tPA conjugated by thioether linkage to MPB-ELIP (PC:MPB-PE:DPPG:CH 69:8:8:15); made without detergent or with 0.01% Tween 20”, the Avidity in the experiment with fibrin [1] (+Tween 20) was found to be 0.151 M^−1/LIP × 10^12; with fibrin [1] (No Detergent), 0.480 M^−1/LIP × 10^12. Also, the “ΔS°” value with fibrin [1] (high affinity only) was “+14.7 cal/mole°”. The “ΔG°” value in the experiment with fibrin [1] (high affinity only, 278 K) is -11.1 kcal/mol; with fibrin [1] (high affinity only, 297 K), -11.5 kcal/mol; with fibrin [1] (high affinity only, 310 K), -11.6 kcal/mol. The Kassoc with fibrin [1] (high affinity only, 278 K) turned out to be 5.83e+08 M⁻¹; in the experiment with fibrin [1] (high affinity only, 297 K), 3.01e+08 M⁻¹; in the experiment with fibrin [1] (high affinity only, 310 K), 1.51e+08 M⁻¹. In the experiment with fibrin [1] (high affinity only, van't Hoff plot), the “ΔH°” value was -7.08 kcal/mol. Also, the Kd with fibrin [1] (thiolation buffers: +Tween 20, read-out: KD @ 37° C.) came to 6.62 nM; in the experiment with fibrin [1] (thiolation buffers: No Detergent, read-out: KD @ 37° C.), 1.9 nM; in the experiment with fibrin [3], 3.91 nM.

(Values after US9814672B2, “Echogenic vehicle for clinical delivery of plasminogen activator and other fibrin-binding therapeutics to thrombi” (priority 2007, dated 2017).)
